To fix the notation:
B1: I-64: Ac-Ala-Asp-Ile-RdN-Asp-Asp-Ala-Ala-Phe-Gln-S7-Phe-Trp-His-NH2 (stapled peptide) (peptide)
peptide: ADIXDDAAFQXFWH
modifications: not fully specified; N-terminal acetyl (Ac); C-terminal amide (NH2); RdN at position 4 and S7 at position 11 (non-natural olefin amino acids); stapled by olefin metathesis RdN-S7
notes: Same description as I-65
B2: I-54: Ac-PL3-Asp-Ala-B5-Asp-Asp-Ala-Ala-Phe-Val-SeN-Phe-Trp-Gln-NH2 (stapled peptide) (peptide)
peptide: Ac-[αAllylPro]DA[B5(4)]DDAAFV[SeN]FWQ-NH2
modifications: staple 1-4, 4-11; not fully specified; printed as Ac-PL3-Asp-Ala-B5-Asp-Asp-Ala-Ala-Phe-Val-SeN-Phe-Trp-Gln-NH2
notes: Same description as I-53
B3: I-730 (peptide)
peptide: XDLXDEAAFNXFXQA
modifications: not fully specified; N-terminal Ac; C-terminal NH2; PL3 at 1, B5 at 4, S8 at 11, BztA at 13; stapled PL3-B5 and B5-S8 by olefin metathesis
notes: Stapled peptide; also called Ac-PL3-Asp-Leu-B5-Asp-Glu-Ala-Ala-Phe-Asn-S8-Phe-BztA-Gln-Ala-NH2
B4: I-731 (peptide)
peptide: Ac-[αAllylPro]DL[B5(17)]DEAAFN[S8]F[Bta]Q[dA]-NH2
modifications: staple 1-4, 4-11
notes: also called Ac-PL3-Asp-Leu-B5-Asp-Glu-Ala-Ala-Phe-Asn-S8-Phe-BztA-Gln-dAla-NH2
B5: I-749 (peptide)
peptide: XDLXDEAAFNXFXT
modifications: not fully specified; N-terminal Ac; C-terminal NH2; PL3 at 1, B5 at 4, S8 at 11, BztA at 13; stapled PL3-B5 and B5-S8 by olefin metathesis
notes: Stapled peptide; also called Ac-PL3-Asp-Leu-B5-Asp-Glu-Ala-Ala-Phe-Asn-S8-Phe-BztA-Thr-NH2
B6: I-750 (peptide)
peptide: Ac-[αAllylPro]DL[B5(4)]DEAAFN[S8]F[Bta]S-NH2
modifications: staple 1-4, 4-11; also: olefin E/Z not assigned, earlier-eluting staple isomer
notes: Stapled peptide; same description as I-751, earlier eluting staple isomer composition; also called Ac-PL3-Asp-Leu-B5-Asp-Glu-Ala-Ala-Phe-Asn-S8-Phe-BztA-Ser-NH2

Starred links: 1 amine or outer side, 2 acyl side, 3 side chain; linkers in the order of their positions; H or OH if unused. Positions of bridges follow the written chain, without caps; N, C: chain ends. Non-standard residues stand in square brackets, D forms with d. Primed or numbered codes have the meaning given here. *: point of attachment. PyrS2″ = (S)-3-amino-1-((pent-4-en-1-yloxy)carbonyl)pyrrolidine-3-carboxylic acid (stapling residue), C=CCCCOC(=O)N1CC[C@@](N[*:1])(C(=O)[*:2])C1; B5(17) = 2,2-bis(4-pentenyl)glycine = 2-amino-2-(pent-4-en-1-yl)hept-6-enoic acid, stitching residue, C=CCCCC(CCCC=C)(N[*:1])C(=O)[*:2]; B5(18) = 2,2-bis(4-pentenyl)glycine (2-amino-2-(pent-4-en-1-yl)hept-6-enoic acid), stitching residue, C=CCCCC(CCCC=C)(N[*:1])C(=O)[*:2]; B5(4) = 2,2-bis(4-pentenyl)glycine = 2-amino-2-(pent-4-en-1-yl)hept-6-enoic acid (stitching residue), C=CCCCC(CCCC=C)(N[*:1])C(=O)[*:2]; TfeGA = (S)-2-amino-3-((carboxymethyl)(2,2,2-trifluoroethyl)amino)propanoic acid, O=C([C@H](CN(CC(=O)[*:3])CC(F)(F)F)N[*:1])[*:2]; SeN = (S)-5-(((allyloxy)carbonyl)(methyl)amino)-2-amino-2-methylpentanoic acid, C=CCOC(=O)N(C)CCC[C@](C)(N[*:1])C(=O)[*:2]; SdN = (S)-4-(((allyloxy)carbonyl)(methyl)amino)-2-amino-2-methylbutanoic acid, C=CCOC(=O)N(C)CC[C@](C)(N[*:1])C(=O)[*:2]; B5(3) = 2,2-bis(4-pentenyl)glycine (stitching residue), C=CCCCC(CCCC=C)(N[*:1])C(=O)[*:2]; Phe(2-Cl) = N[C@@H](Cc1ccccc1Cl)C(=O)O; Bta = N[C@@H](Cc1csc2ccccc12)C(=O)O; αAllylPro = C=CC[C@@]1(C(=O)O)CCCN1; tBuAla = CC(C)(C)C[C@H](N)C(=O)O; S8 = C=CCCCCCC[C@](C)(N)C(=O)O; Leu(ol) = CC(C)C[C@H](N)CO; hSer = N[C@@H](CCO)C(=O)O; Alaol = C[C@@H](CO)N*

Here are results for 13 molecules from patent US20240116985A1 (published 2024).

Broadly, the IC50 is the midpoint of a concentration-inhibition curve.

One test has as its target T1, full-length beta-Catenin (Uniprot ID P35222) (Homo sapiens (Human), UniProt P35222 1-781).
T1 construct: The assay protocol says 'full-length'; also called bCat; B-Catenin
T1 sequence: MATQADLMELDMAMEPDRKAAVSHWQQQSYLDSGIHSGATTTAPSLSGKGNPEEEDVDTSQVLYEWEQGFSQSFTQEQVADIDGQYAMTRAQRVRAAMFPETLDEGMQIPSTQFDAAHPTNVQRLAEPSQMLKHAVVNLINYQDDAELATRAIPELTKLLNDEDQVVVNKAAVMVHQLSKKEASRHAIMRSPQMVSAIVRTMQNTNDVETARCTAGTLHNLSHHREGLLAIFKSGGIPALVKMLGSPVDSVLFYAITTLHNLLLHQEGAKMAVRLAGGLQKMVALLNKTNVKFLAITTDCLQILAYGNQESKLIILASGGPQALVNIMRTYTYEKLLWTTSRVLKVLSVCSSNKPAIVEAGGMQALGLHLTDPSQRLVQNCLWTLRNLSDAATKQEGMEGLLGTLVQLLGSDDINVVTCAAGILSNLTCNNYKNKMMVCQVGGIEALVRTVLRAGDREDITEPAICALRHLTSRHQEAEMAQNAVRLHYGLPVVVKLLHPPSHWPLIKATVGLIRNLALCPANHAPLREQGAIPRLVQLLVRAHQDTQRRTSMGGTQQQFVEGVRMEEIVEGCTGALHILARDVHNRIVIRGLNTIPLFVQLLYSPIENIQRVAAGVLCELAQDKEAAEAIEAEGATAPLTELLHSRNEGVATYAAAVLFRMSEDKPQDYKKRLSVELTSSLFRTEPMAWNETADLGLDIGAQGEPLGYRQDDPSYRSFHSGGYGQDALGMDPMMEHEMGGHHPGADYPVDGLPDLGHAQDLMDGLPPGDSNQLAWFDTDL
Nature of the test: fluorescence polarization competition; full-length beta-catenin, 5FAM-TCF4(10-53) probe as competitor. On the procedure: The plate was incubated protected from light for 60 minutes at 20° C. prior to read. Reads were performed on a CLARIOstar plate reader (BMG Labtech) in duplicate, and data were fitted to a 1:1 binding model with hill slope using an in-house script. All provided concentrations are final concentrations.
For orientation: Fluorescence polarisation rises when a labelled molecule tumbles more slowly, as on binding a larger partner.
The molecule Ac-[αAllylPro]DA[B5(17)]DDAAFV[SdN]FWQ-NH2 (staple 1-4, 4-11, Tested as stapled peptide composition) [I-55: Ac-PL3-Asp-Ala-B5-Asp-Asp-Ala-Ala-Phe-Val-SdN-Phe-Trp-Gln-NH2 (stapled peptide)] registered an IC50 of 5 µM.

Take B1: the half-maximal inhibitory concentration (IC50) is 4.25 µM.

B2 registered an IC50 of 3.19 µM.

Another test addresses T2, B-cat-Halo (beta-catenin HaloTag NanoBRET construct expressed in HEK293 cells) (UniProt P35222 1-781).
T2 sequence (looked up): T1 sequence
Nature of the test: cell-based or functional assay.
As for Ac-[αAllylPro]D[tBuAla][B5(4)]DDAAFN[PyrS2″][Phe(2-Cl)][Bta]Q-NHEt (staple 1-4, 4-11) [I-1079], the “NanoBRET Abs IC50” value came to 19.7 µM.

Consider Ac-[αAllylPro]D[tBuAla][B5(3)]DDAAFN[PyrS2″][Phe(2-Cl)][Bta]-Alaol (staple 1-4, 4-11) [I-1081], for which the “NanoBRET Abs IC50” value was 16.7 µM.

In the case of Ac-[αAllylPro]D[tBuAla][B5(4)]DDAAFN[PyrS2″][Phe(2-Cl)][Bta][Leu(ol)] (staple 1-4, 4-11) [I-1080], the “NanoBRET Abs IC50” value was over 20 µM.

The target in a further test is T3, beta-catenin in DLD1 TCF/LEF luciferase reporter cells (UniProt P35222 1-781).
T3 sequence (looked up): T1 sequence
The test is described as follows: cell-based or functional assay.
Take Ac-[αAllylPro]D[tBuAla][B5(4)]DDAAFN[PyrS2″][Phe(2-Cl)][Bta]Q-NHEt (staple 1-4, 4-11) [I-1079]: the “DLD1 reporter assay Abs IC50” value turned out to be 14.5 µM.

Turning to Ac-[αAllylPro]D[tBuAla][B5(3)]DDAAFN[PyrS2″][Phe(2-Cl)][Bta]-Alaol (staple 1-4, 4-11) [I-1081], the “DLD1 reporter assay Abs IC50” value turned out to be 10 µM.

Ac-[αAllylPro]D[tBuAla][B5(4)]DDAAFN[PyrS2″][Phe(2-Cl)][Bta][Leu(ol)] (staple 1-4, 4-11) [I-1080]: the “DLD1 reporter assay Abs IC50” value is 17.2 µM.

The next test has as its target T4, B-cat-Halo (UniProt P35222 1-781, HaloTag NanoBRET 618 Ligand bound in the assay).
T4 construct: Transfected into HEK293 cells for the NanoBRET assay; also called beta-catenin HaloTag NanoBRET construct; not shown: HaloTag
T4 sequence (looked up): T1 sequence
The test is described as follows: NanoBRET Abs IC50 in HEK293 cells; B-cat-Halo, competitor TCF4-Luc. In general terms: In BRET a luciferase serves as donor, and the signal depends on an acceptor being close.
The molecule B3 had an IC50 of 11.2 µM.

In turn, B4 returned an IC50 of 11.6 µM.

In turn, B5 yielded an IC50 of 9 µM.

The molecule B6 displayed a half-inhibitory concentration (IC50) of 7.4 µM.

The next test has as its target T5, beta-catenin in DLD1 TCF/LEF luciferase reporter cells (UniProt P35222 1-781).
T5 sequence (looked up): T1 sequence
The test is described as follows: cell-based or functional assay.
For Ac-[αAllylPro]D[tBuAla][B5(3)]D[TfeGA]AAF[hSer][S8][Phe(2-Cl)][Bta][hSer]-NH2 (staple 1-4, 4-11) [I-1000], the “DLD1 4% Abs IC50” value came to 1.9 µM.

For the molecule Ac-[αAllylPro]D[tBuAla][B5(3)]D[TfeGA]AAFS[S8][Phe(2-Cl)][Bta][hSer]-NH2 (staple 1-4, 4-11; also: later-eluting HPLC isomer) [I-999], the “DLD1 4% Abs IC50” value was 5.6 µM.

For Ac-[αAllylPro]D[tBuAla][B5(18)]DDAAFT[PyrS2″][Phe(2-Cl)][Bta]S-NH2 (staple 1-4, 4-11) [I-1015], the “DLD1 4% Abs IC50” value amounted to 5.7 µM.

A further test addresses T6, B-cat-Halo (UniProt P35222 1-781).
T6 sequence (looked up): T1 sequence
Nature of the test: cell-based or functional assay.
On to Ac-[αAllylPro]D[tBuAla][B5(3)]D[TfeGA]AAF[hSer][S8][Phe(2-Cl)][Bta][hSer]-NH2 (staple 1-4, 4-11) [I-1000], for which the “NanoBRET Abs IC50” value came out at 23.9 µM.

For the molecule Ac-[αAllylPro]D[tBuAla][B5(3)]D[TfeGA]AAFS[S8][Phe(2-Cl)][Bta][hSer]-NH2 (staple 1-4, 4-11; also: later-eluting HPLC isomer) [I-999], the “NanoBRET Abs IC50” value came to 26.3 µM.

As to Ac-[αAllylPro]D[tBuAla][B5(18)]DDAAFT[PyrS2″][Phe(2-Cl)][Bta]S-NH2 (staple 1-4, 4-11) [I-1015], the “NanoBRET Abs IC50” value is 8.9 µM.

The target of another test is T7, full-length beta-Catenin (Uniprot ID P35222) (Homo sapiens (Human), UniProt P35222 1-781).
T7 construct: also called bCat; B-Catenin
T7 sequence: T1 sequence
Nature of the test: fluorescence polarization competition; full-length beta-catenin, competitor 5FAM-TCF4(10-53) probe. The method in brief: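 Incubate 60 minutes at 20° C. away from light, then read polarization in duplicate. Fit to 1:1 binding with hill slope.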
With B3, the 50% inhibitory concentration (IC50) came out at 0.035 µM.

B4 came in with a concentration for half-maximal inhibition (IC50) of 0.034 µM.

In turn, B5 showed an IC50 of 0.04 µM.

Molecule B6 had a half-maximal inhibitory concentration (IC50) of 0.043 µM.
